In the DeepSol protein solubility set:

Assay: soluble on expression in E. coli; label from the status in PepcDB or PDB records

Row | Sequence | soluble on expression in E. coli
1 | MSCSHYEERVEKVELPQLKVNGMAIGEDLLARELQYHPADSYALALEAACRALIVRQLLLQRADALGIEARCEDGETPEEARIRQLLEEEVQVPEADEDACRTWYAANPGRLLGPWRLQLRHVLLACAPDDLEGRETARKQAAELLDELRGHPERFVDLARRFSACPSKESGGDLGWIEPGQTVPEFEKRLLRRAPGLLEHPLESRYGLHVVELLAREGGEPLDFDAARAQIAAHLQAQVLQRAVGQYIGVLAGD | not soluble
2 | PNRLAEAGSRYLRQHSCDPVDWMPWGAEAFEKARRLDKPVFVSVGYSSCHWCHVMQRESFSDPMVAEVLNRAFVMVKVDREERPDVDTLLMRYCAIASGSCGWPLNVLLTPDGKPFYVATYLPKESLVALAVSLERVWRERRAEVLEVAERAGGLLEQHRLAFTPGR | not soluble
3 | MAATSSTSSQSFDIELDIIGQQPPLLSIYTQISLVYPVSDPSQYPTIVSTLEEGLKRLSQTFPWVAGQVKTEGISEGNTGTSKIIPYEETPRLVVKDLRDDSSAPTIEGLRKAGFPLEMFDENVVAPRKTLAIGPGNGPNDPKPVLLLQLNFIKGGLILTVNGQHGAMDMTGQDAIIRLLSKACRNESFTEEEISAMNLDRKTVVPLLENYKVGPELDHQIAKPAPAGDAPPAPAKATWAFFSFTPKALSELKDAATKTLDASSKFVSTDDALSAFIWQSTSRVRLARLDASTPTEFCRAVDMRGPMGVSSTYPGLLQNMTYHDSTVAEIANEPLGATASRLRSELNSDRLRRRTQALATYMHGLPDKSSVSLTADANPSSSIMLSSWAKVGCWEYDFGFGLGKPESVRRPRFEPFESLMYFMPKKPDGEFTASISLRDEDMERLKADEEWTKYAKYIG | soluble
4 | MVTLEDMSQYLDEFLADARDRIDSLSNAILTLEKIVKEGGSEEEKTELINQIFRDAHTLKGTAATMGFMKLSETAHKMENIFDAIRNSQLELTPELVDLVLDFLDAIDAMVNNIEESGNEGDVDVSDLFERADEFLGGSKKEIKPEEKPKEAEKKEEKVAEEVPSAEGKVYYIKVKFQKDAPLKGVRAFLILSDLEERGEVIWTNPGREIIENGNLEGDVVEFRIVSETPKEELETVIKRHPEVESVEIVEEKKKEEAGEKAVEGKEYVVRVYFQPDTPLKGPRSYLILNDLEKIGEILSTNPSRQDIEEGNLIENKFFEVVLRTSESKEKISEILKKHPDVLNFTITEKEEEKKEEKKEAKKQPPKQPKKPPIIETPKVKISRVIKIDVGHLDKLMNLVGELVITKGRLEQIGERLGDRELFEALSTLSRLLTELQDEIMEMRLTPIAEVFNKFPRMVRDLARKMGKEVEFVMEGADIEVDRTILEKLGDALVHLLRNAVDHGIEPPEERVKLGKPRAGRVELIAKREKNHVVIIVRDDGRGIDPEKVKRKAVERGLITPEEAANLSDEEAINLIFLPGFSTADKVTDVSGRGVGMDVVKEVVKSMNGSISVQTEVGKGTTFILKLPISMAIIQALLIRVEDETYAIPINNILETIEVDPSILKTVGGKPVIVLRGEIIPVIMLHELFGLPAPQVDRFPAIIVDHGAQKVAIGVDELLHKRDIVIKSLGKFLSNVRGFAGATILGDGSVVLIIDIGGLLGGGYSG | soluble
5 | MGSDKIHHHHHHMKDKVVVSQLGARMHYAVPRIFASAGRLAHFYTDICATKGWPRIVNSFPATLYPAPVKRLAGRLPKGVPTALTTVFSNFGLRSVLRHMRAKDVVEETSHAIWAGSIFSEMVARRGFHGAAGLYAFSGDALEQMQAAKQQGLWTAVEQMIAPRDVVEMLLNQEMKRFPAWAGPVQENPHARLFAEREKAEWRLADVIVCPSEFVRKNVVACGGPEDRCVVVPYGVNAAVANNRPARMPGPIRVLTVGEVGLRKGSPYVVEASRLMEGSARFRMAGRVRLADDVKQQISQWVELRGIVPRSQIAEEFRWADVFLLPSLCEGSATAVYEALAAGLPVITTENTGSVVRDGIEGFIVPVCDPEAIATAVRALAGNPELMRSMSANALLRAAEHTVESYGERLLAVLSGPHLAGSVGLCQTEEARYLGNNTI | not soluble
6 | MGSDKIHHHHHHMNIPIKTLQCFLTLVETENFTRAAQKCFITQPTLSKIIQRLEESLGETLLIRNNQKVELTQAGQLFEHSAREILGQWHRLQEDMSNLSGLKSGRLRLGVCPMMSSLIIGLLTSYRKRYPGVELQMYEYGGFGCEQALLNNSLDIAFTALPTTHETELINQPLTKYPLLACLPEAHPLAAKSYLSWQDFEPYPFILYNEDFSLAKLINRLSRKAGVQLNIAFRSGQWDFLATMVEADMGLAILPEPICQKLSNSKLVFRPMQPALTWDLALIWRQNLPLTPAANALLELSKQKA | not soluble
7 | MRIHDIDPDNRPRERFLRSGKESLSPAELLALILRSGTAGLNIIDTCNKLISEHGLERLADLSIQELQKTPGIGEAKAMQIAAIFELQRRLHFARNMNLKVKGARDVFEYMKGRIPDETKEHLFVLFLSTKNQILRHETITIGTLTASLIHPREIFKAAIRESAHSIILVHNHPSGDVQPSNADKQVTSILKKAGDLLQIELLDHVIVGNNDWFSFRDHALL | not soluble
8 | MGSDKIHHHHHHMLSHEEIVAIAEDLLSKRYGGVQTLSDVEQLNGSGTSAVLRARVANSPFLQQRSVVLKYVPSTGDVFDDSALVREIVSYQFTTSLSEDVRPGPVILAYDIDKRILVISDSGNGDTFADLIDQRTGDQRMQILRNLGQSLGSLHAATADREEDFNILLNRMLAKYPATAEMQKNRDRLLPAAIEVGKKILVDAGVTVPEVVEEFARVARRRLISGRHRAFTPFDLSPDNIIVAERTHFLDYEVAGFRDATFDVACVIAGFPQFVFSRPISDDEVDELIESWVQEVRGIWPNVNNEERLQARIVTALIGWALSSVAFMKLGSISGMLNLLHVTEDGNTTLDVSNLDELLIPRSAEDDELVQQDLHDTFSALQRFAARGLDSRFPEVARFADDVVRLFLKND | not soluble
9 | MSLKEDYADVRNVMIMGGSRIAVRTAQYVPDYMQVKIVDNDINRCNRLTELLDDKTMIINGDGRDMDLLIEEGLKNTEAFVALTDNSETNILACLAAKRMGVEKTVAEVENIDYIGMAESLDIGTVINKKMIAASHIYQMMLDADVSNVKCLTFANADVAEFTVPAGAKITKNLIKDLGLPKGTTIGGMIRNGEGVLVTGDTLIRPGDHVVVFCLSMMIKKIEKFFNEGHHHHHH | not soluble
10 | MGSDKIHHHHHHMVKKIMLHGATDYGSSNYGDYLYGEIVYDLLESKGYEVSFYNPSDFFQMYLKEYRQKQSFTKKQADAILYIPGGYFGEGHNARFRDNLIQFKRFLPLGIWASYFKKPIGVLGIGAGPNNDSLMNYGIKRIINHAQFITVRDRESFDSLKHLSPSAPVHETFDLIISSKLREEKTEQLCQLKREAKDKKIILVHYNHSKKALEKFAESISLFLENNPNYYVVVTSDSILPYEDAYYQEFRKLVRTEDCFQFKYHSPAEMTSLLKMVDVVLTCKLHVGVVATCFNKSVIAIACHPEKTARYYGAIGELQRCESLFDSSVNSIVKKLETFHLKPITIPSELVLKARSSLDYLDLFLEGLVRES | not soluble
11 | MGSDKIHHHHHHLRTNTVKVALVGCGRIAGHHARSIVATDGVQLAAVCDLAEDKALAYSNEFGVPSYTDYRRMLAEHPEISVVAVITPSGMHSEHGLEMMERFGKHIILEKPTMMRPEQLVHAWGVADRLNLSIFPVFQNRHNKAVTRVRQALAAGELGEIRIMSVRVRWCRPQRYYDLAPWRGTFSHDGGALTNQGIHHVDLLRHLGGEVDQVSATMRTLGADIEVEDTVVATMRYRSQAVGVLEVTTAARPDDFEASISIVGEKGLAQIGGIAVNELQVFTPDPAACAANSEDFKSFEGNGAVYGFGHSQMYRDIAAHFHQGKAYPVSREDCLGTLKLLHAFYRSDEAAGGWVDVDSPEQSTRLGRPDDAISNLYRTPLHG | not soluble
12 | MSSKNSLSDKIKITFQYIMPKHAISRLVGKLAAAKMGWLTTKLISMFIKAYGINMNEAKLKKASDFDTFNNFFTRELEEGARIIDNDENTICYPVDGAISQQGDIIDGQLIQAKGFNYSVTSLLGGDEKTAAPFQGGKFSCIYLAPKDYHRIHMPMAATLREMIYVPGELFSVNPLTAQNVPDLFARNERVVAIFDTEMGELAMVLVGATIVASIETTWAGTITPPAGKDIFRWQYPKDGADAITFEKGDEMGRFKLGSTVVSTFAPNMISEFATDAGPGTVTRLGEIYAALDKSASLEHHHHHH | not soluble
13 | GSKPVSEKIMEIKLIKGPKGLGFSIAGGVGNQHWPGDNSIYVTKIIEGGAAHKDGKLQIGDKLLAVNNVALEEVTHEEAVTALKNTSDFVYLKVAKPTS | soluble
14 | SCTLGRLVSPGPCPRPYLVITEQPKQRGMRFRYECEGRSAGSILGESSTEASKTQPAIELRDCGGLREVEVTACLVWKDWPHRVHPHSLVGKDCTDGVCRVRLRPHVSPRHSFNNLGIQCVRKKEIEAAIERKIQLGIDPYNAGSLKNHQEVDMNVVRICFQASYRDQQGHLHRMDPILSEPVYDKKSTNTSELRICRINKESGPCTGGEELYLLCDKVQKEDISVVFSTASWEGRADFSQADVHRQIAIVFKTPPYEDLEISEPVTVNVFLQRLTDGVCSEPLPFTYLPRDHDSY | soluble
15 | MIQTKDIIELTDTYGANNYHPLPIVISKAEGVWVEDPEGNRYMDLLSAYSAVNQGHRHPKIINALIDQANRVTLTSRAFHSDQLGPWYEKVAKLTNKEMVLPMNTGAEAVETAIKTARRWAYDVKKVEANRAEIIVCEDNFHGRTMGAVSMSSNEEYKRGFGPMLPGIIVIPYGDLEALKAAITPNTAAFILEPIQGEAGINIPPAGFLKEALEVCKKENVLFVADEIQTGLGRTGKVFACDWDNVTPDMYILGKALGGGVFPISCAAANRDILGVFEPGSHGSTFGGNPLACAVSIAALEVLEEEKLTERSLQLGEKLVGQLKEIDNPMITEVRGKGLFIGIELNEPARPYCEQLKAAGLLCKETHENVIRIAPPLVISEEDLEWAFQKIKAVLS | not soluble
16 | MVHIKKGELTQEEKELLEVIGKGTVQEAGTLLSSKNVRVNCLDENGMTPLMHAAYKGKLDMCKLLLRHGADVNCHQHEHGYTALMFAALSGNKDITWVMLEAGAETDVVNSVGRTAAQMAAFVGQHDCVTIINNFFPRERLDYYTKPQGLDKEPKLPPKLAGPLHKIITTTNLHPVKIVMLVNENPLLTEEAALNKCYRVMDLICEKCMKQRDMNEVLAMKMHYISCIFQKCINFLKDGENKLDTLIKSLLKGRASDGFPVYQEKIIRESIRKFPYCEATLLQQLVRSIAPVEIGSDPTAFSVLTQAITGQVGFVDVEFCTTCGEKGASKRCSVCKMVIYCDQTCQKTHWFTHKKICKNLKDIYEKQQLEAAKEKRQEENHGKLDVNSNCVNEEQPEAEVGISQKDSNPEDSGEGKKESLESEAELEGLQDAPAGPQVSEE | soluble
17 | KSVYLQSPYFIPDNSYINAIKIAAKSGVDVHLMIPCKPDHPLVYWATFSNASDLLSSGVKIYTYENGFIHSKMCLIDDEIVSVGTANMDFRSFELNFEVNAFVYDENLAKDLRVAYEHDITKSKQLTKESYANR | not soluble
18 | MHYCEPGWFELIRHRLAFFKDNAAPFKILFLADLHYSRFVPLSLISDAIALGIEQKPDLILLGGDYVLFDMSLNFSAFSDVLSPLAECAPTFACFGNHDRPVGTEKNHLIGETLKSAGITVLFNQATVIATPNRQFELVGTGDLWAGQCKPPPASEANLPRLVLAHNPDSKEVMRDEPWDLMLCGHTHGGQLRVPLVGEPFAPVEDKRYVAGLNAFGERHIYTTRGVGSLYGLRLNCRPEVTMLELVLEHHHHHH | not soluble
